Results from the supplement of paper PMC7877785.
± gives the uncertainty stated by the source.

Assay: self-splicing fitness, log relative to wild type (ln ratio); higher = more splicing; Tetrahymena group I intron in knt gene, E. coli kanamycin selection, DiMSum; sequences stand for … in CUCUCU…GGAGGGAAAAGUUAUCAGGCAUGCACCUGGUAGCUAGUCUUUAAACCAAUAGAUUGCAUCGGUUUAAAAGGCAAGACCGUCAAAUUGCGGGAAAGGGGUCAACAGCCGUUCAGUACCAAGUCUCAGGGGAAACUUUGAGAUGGCCUUGCAAAGGGUAUGGUAAUAAGCUGACGGACAUGGUCCUAACCACGCAGCCAAGUCCUAAGUCAACAGAUCUUCUGUUGAUAUGGAUGCAGUUCACAGACUAAAUGUCGGUCGGGGAAGAUGUAUUCUUCUCAUAAGAUAUAGUCGGACCUCUCCUUAAUGGGAGCUAGCGGAUGAAGUGAUGCAACACUGGAGCCGCUGGGAACUAAUUUGUAUGCGAAAGUAUAUUGAUUAGUUUUGGAGUACUCGUGGUCG
Procedure, shortened: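 Pooled colonies went to amplicon sequencing on an Illumina HiSeq 2500 after six replicate transformations. The plates were LB agar with 100 μg/mL carbenicillin, 50 μM IPTG and 0.2% rhamnose, with or without 25 μg/mL kanamycin, incubated overnight at 37°C or 30°C. The E. coli BL21(DE3) library had all eight P1ex-region intron nucleotides randomised, the intron placed in the knt kanamycin-resistance gene on pET-22b(+). DiMSum fitness is the error-weighted combination of replicate fold changes, kanamycin against none, normalised to wild type.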

Sequence: UAUCAGCAAUAUUACGAGGA
- self-splicing fitness (ln) (30 °C): -0.877 ± 0.13
- self-splicing fitness (ln) (37 °C): -1.39 ± 0.14

Sequence: UUCGAGCAAUAUUACGCUGA
- self-splicing fitness (ln) (30 °C): -2.66 ± 0.45
- self-splicing fitness (ln) (37 °C): -1.89 ± 0.44

Sequence: AGCCAGCAAUAUUACGGGGA
- self-splicing fitness (ln) (30 °C): -1.87 ± 0.12
- self-splicing fitness (ln) (37 °C): -0.713 ± 0.11

Sequence: GCACAGCAAUAUUACGAAAU
- self-splicing fitness (ln) (30 °C): -1.63 ± 0.099
- self-splicing fitness (ln) (37 °C): -0.818 ± 0.11

Sequence: CAGCAGCAAUAUUACGGAGA
- self-splicing fitness (ln) (30 °C): -3.3 ± 0.31
- self-splicing fitness (ln) (37 °C): -3.02 ± 0.22

Sequence: AAUCAGCAAUAUUACGGUAC
- self-splicing fitness (ln) (30 °C): -0.714 ± 0.082
- self-splicing fitness (ln) (37 °C): -0.852 ± 0.1

Sequence: UGGUAGCAAUAUUACGGUUG
- self-splicing fitness (ln) (30 °C): -0.694 ± 0.082
- self-splicing fitness (ln) (37 °C): -0.285 ± 0.11

Sequence: CGCUAGCAAUAUUACGCUCA
- self-splicing fitness (ln) (30 °C): -2.4 ± 0.18
- self-splicing fitness (ln) (37 °C): -0.522 ± 0.11

Sequence: UUCUAGCAAUAUUACGUUAC
- self-splicing fitness (ln) (30 °C): -2.41 ± 0.23
- self-splicing fitness (ln) (37 °C): -2.42 ± 0.29

Sequence: GACAAGCAAUAUUACGAAGC
- self-splicing fitness (ln) (30 °C): -2.96 ± 0.22
- self-splicing fitness (ln) (37 °C): -2.15 ± 0.28

Sequence: UAAAAGCAAUAUUACGCUGU
- self-splicing fitness (ln) (30 °C): -3.01 ± 0.23
- self-splicing fitness (ln) (37 °C): -2.26 ± 0.2

Sequence: CCCCAGCAAUAUUACGUGCG
- self-splicing fitness (ln) (30 °C): -3.1 ± 0.099
- self-splicing fitness (ln) (37 °C): -2.58 ± 0.14

Sequence: GCACAGCAAUAUUACGUGCU
- self-splicing fitness (ln) (30 °C): -3.6 ± 0.1
- self-splicing fitness (ln) (37 °C): -2.75 ± 0.12

Sequence: GCGAAGCAAUAUUACGGUGC
- self-splicing fitness (ln) (30 °C): -3.75 ± 0.18
- self-splicing fitness (ln) (37 °C): -2.95 ± 0.18

Sequence: CCGCAGCAAUAUUACGCUUA
- self-splicing fitness (ln) (30 °C): -3.07 ± 0.17
- self-splicing fitness (ln) (37 °C): -2.9 ± 0.25

Sequence: CUCCAGCAAUAUUACGCGAC
- self-splicing fitness (ln) (30 °C): -3.79 ± 0.2
- self-splicing fitness (ln) (37 °C): -2.31 ± 0.18

Sequence: ACUCAGCAAUAUUACGCACG
- self-splicing fitness (ln) (30 °C): -1 ± 0.078
- self-splicing fitness (ln) (37 °C): -0.784 ± 0.13

Sequence: AAACAGCAAUAUUACGACGA
- self-splicing fitness (ln) (30 °C): -1.32 ± 0.096
- self-splicing fitness (ln) (37 °C): 0.0122 ± 0.099

Sequence: CCGGAGCAAUAUUACGGCAU
- self-splicing fitness (ln) (30 °C): -2.81 ± 0.22
- self-splicing fitness (ln) (37 °C): -1.55 ± 0.19

Sequence: GUACAGCAAUAUUACGACAU
- self-splicing fitness (ln) (30 °C): -0.299 ± 0.012
- self-splicing fitness (ln) (37 °C): 0.127 ± 0.032

Sequence: CGUUAGCAAUAUUACGAGAA
- self-splicing fitness (ln) (30 °C): -1.93 ± 0.49
- self-splicing fitness (ln) (37 °C): -1.45 ± 0.46

Sequence: CCUCAGCAAUAUUACGGGGC
- self-splicing fitness (ln) (30 °C): -3.68 ± 0.14
- self-splicing fitness (ln) (37 °C): -2.98 ± 0.19

Sequence: CAGGAGCAAUAUUACGAUGA
- self-splicing fitness (ln) (30 °C): -1.76 ± 0.41

Sequence: CACUAGCAAUAUUACGAAUG
- self-splicing fitness (ln) (30 °C): -1.7 ± 0.075
- self-splicing fitness (ln) (37 °C): -1.01 ± 0.086

Sequence: AGACAGCAAUAUUACGAUAA
- self-splicing fitness (ln) (30 °C): -2.68 ± 0.16
- self-splicing fitness (ln) (37 °C): -0.931 ± 0.15

Sequence: GCUUAGCAAUAUUACGAUGC
- self-splicing fitness (ln) (30 °C): -1.43 ± 0.13
- self-splicing fitness (ln) (37 °C): -0.976 ± 0.21

Sequence: GGUAAGCAAUAUUACGACCU
- self-splicing fitness (ln) (30 °C): -1.81 ± 0.18
- self-splicing fitness (ln) (37 °C): -1.93 ± 0.24

Sequence: CGAAAGCAAUAUUACGUCUA
- self-splicing fitness (ln) (30 °C): -0.692 ± 0.25
- self-splicing fitness (ln) (37 °C): -0.962 ± 0.17

Sequence: CCCGAGCAAUAUUACGAAUG
- self-splicing fitness (ln) (30 °C): -2.61 ± 0.18
- self-splicing fitness (ln) (37 °C): -1.41 ± 0.22

Sequence: UGUCAGCAAUAUUACGUGUA
- self-splicing fitness (ln) (30 °C): -0.648 ± 0.056
- self-splicing fitness (ln) (37 °C): 0.127 ± 0.074

Sequence: AGGCAGCAAUAUUACGAAAC
- self-splicing fitness (ln) (30 °C): -3.58 ± 0.22
- self-splicing fitness (ln) (37 °C): -1.8 ± 0.19

Sequence: AGCCAGCAAUAUUACGCCCU
- self-splicing fitness (ln) (30 °C): 0.0781 ± 0.11
- self-splicing fitness (ln) (37 °C): 0.234 ± 0.13

Sequence: CAGCAGCAAUAUUACGCCGU
- self-splicing fitness (ln) (30 °C): -2.74 ± 0.22
- self-splicing fitness (ln) (37 °C): -2.41 ± 0.28

Sequence: UCCGAGCAAUAUUACGCCUA
- self-splicing fitness (ln) (30 °C): -2.13 ± 0.2
- self-splicing fitness (ln) (37 °C): -2.6 ± 0.36

Sequence: AGAAAGCAAUAUUACGGCAC
- self-splicing fitness (ln) (30 °C): -0.435 ± 0.087
- self-splicing fitness (ln) (37 °C): -0.727 ± 0.13

Sequence: UGUAAGCAAUAUUACGCAGG
- self-splicing fitness (ln) (30 °C): -3.22 ± 0.16
- self-splicing fitness (ln) (37 °C): -3.06 ± 0.24

Sequence: CUGCAGCAAUAUUACGUCAG
- self-splicing fitness (ln) (30 °C): -3.61 ± 0.28
- self-splicing fitness (ln) (37 °C): -2.08 ± 0.21

Sequence: UGAUAGCAAUAUUACGCGUG
- self-splicing fitness (ln) (30 °C): -1.18 ± 0.072
- self-splicing fitness (ln) (37 °C): -0.0417 ± 0.078

Sequence: CCGUAGCAAUAUUACGACAC
- self-splicing fitness (ln) (30 °C): -1.82 ± 0.22

Sequence: GCUCAGCAAUAUUACGCCGA
- self-splicing fitness (ln) (30 °C): -2.43 ± 0.26
- self-splicing fitness (ln) (37 °C): -1.39 ± 0.34

Sequence: CGAUAGCAAUAUUACGGUAG
- self-splicing fitness (ln) (30 °C): -1.41 ± 0.11
- self-splicing fitness (ln) (37 °C): -0.461 ± 0.11

Sequence: GUCCAGCAAUAUUACGAGCC
- self-splicing fitness (ln) (30 °C): -1.18 ± 0.15
- self-splicing fitness (ln) (37 °C): -0.519 ± 0.16

Sequence: CGACAGCAAUAUUACGGCCC
- self-splicing fitness (ln) (30 °C): -0.607 ± 0.19
- self-splicing fitness (ln) (37 °C): -0.549 ± 0.24

Sequence: CGAUAGCAAUAUUACGACAG
- self-splicing fitness (ln) (30 °C): 0.215 ± 0.1
- self-splicing fitness (ln) (37 °C): 0.719 ± 0.12

Sequence: AUGCAGCAAUAUUACGCGCC
- self-splicing fitness (ln) (30 °C): -0.788 ± 0.15
- self-splicing fitness (ln) (37 °C): -0.038 ± 0.16

Sequence: UUUCAGCAAUAUUACGAUCA
- self-splicing fitness (ln) (30 °C): 0.131 ± 0.14
- self-splicing fitness (ln) (37 °C): 0.086 ± 0.14

Sequence: GACGAGCAAUAUUACGGAAC
- self-splicing fitness (ln) (30 °C): -1.3 ± 0.19
- self-splicing fitness (ln) (37 °C): -2.43 ± 0.35

Sequence: ACAUAGCAAUAUUACGGCCU
- self-splicing fitness (ln) (30 °C): -0.828 ± 0.074
- self-splicing fitness (ln) (37 °C): 0.129 ± 0.1
